Data set [1] deals with the molecule itself. The data set can be described thus: SEC; holo-HypCS-D after Strep-Tactin affinity chromatography, Superdex 200 Increase 10/300 GL; oligomers separated from the HypCD complex.
Data set [2] has as its target T1, HypD from Escherichia coli (Escherichia coli, UniProt P24192 1-373).
T1 construct: HypD, [4Fe-4S] cluster-containing hydrogenase maturation factor, Escherichia coli; Carries a [4Fe-4S] cluster; No tag is named for HypD in the complexes; also called EcHypD; HypD part of HypCS-D and HypCH-D
T1 sequence (looked up): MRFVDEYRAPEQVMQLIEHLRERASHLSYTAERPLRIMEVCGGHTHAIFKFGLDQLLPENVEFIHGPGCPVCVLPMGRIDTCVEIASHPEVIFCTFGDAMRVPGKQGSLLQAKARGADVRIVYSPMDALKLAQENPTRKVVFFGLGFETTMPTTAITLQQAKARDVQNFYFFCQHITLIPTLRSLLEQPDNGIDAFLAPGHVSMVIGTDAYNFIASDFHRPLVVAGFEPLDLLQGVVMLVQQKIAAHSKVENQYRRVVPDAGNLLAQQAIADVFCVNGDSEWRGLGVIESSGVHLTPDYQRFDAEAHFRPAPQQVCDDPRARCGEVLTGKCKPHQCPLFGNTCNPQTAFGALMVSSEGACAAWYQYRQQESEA
The data set can be described thus: pull-down; Strep-Tactin affinity chromatography by the Strep-tag II on HypC from soluble extracts of aerobically cultivated E. coli co-producing HypC_(Strep) and HypD (apo: pTHypDC_(Strep); holo: pTHypDEFC_(Strep)); 4 °C; SDS-PAGE of the isolated complexes. The following applies: partners not purified.

The record followed here is paper PMC11565642, “ATP-Triggered Fe(CN)2CO Synthon Transfer from the Maturase HypCD to the Active Site of Apo-[NiFe]-Hydrogenase” (Journal of the American Chemical Society, 2024).

B1: HypC_(Strep) (HypC from Escherichia coli with Strep-tag II C-terminally fused) (natural protein, UniProt P0AAM3 1-90, looked up)
chain: MCIGVPGQIRTIDGNQAKVDVCGIQRDVDLTLVGSCDENGQPRVGQWVLVHVGFAMSVINEAEARDTLDALQNMFDVEPDVGALLYGEEK
notes: HypC, hydrogenase maturation factor, Escherichia coli; residue numbers count with Met1 as 1; also called EcHypC; HypC part of apo-HypCS-D and holo-HypCS-D; source: holo form additionally by size-exclusion chromatography; not shown: Strep-tag II, C-terminal, kept
For the molecule B1, the binding result in data set [1] and in data set [2] was “binds” in each case.
